# Data from patent US11780895B2, “Targeted DNA demethylation and methylation” (The Jackson Laboratory, priority 2016, dated 2023).
# Experiments:
# hMLH1 promoter = test: Bisulfite conversion and sequencing of the hMLH1 promoter region; type: cell-based, human; settings: untransfected HEK293T cells treated for 6 days
# Text: Casilio-mediated delivery of demethylation enzymes alters methylation state of targeted genomic locus. Evidence that the shown Casilio-ME-induced activation of hMLH1 transcription is a result of TET1-mediated cytosine demethylation within the targeted promoter region came from DNA sequencing of hMLH1 promoter after bisulfite conversion. Bisulfite treatment of genomic DNA deaminates unmethylated cytosines to produce uracils that are subsequently replicated as thymine. However, methylated cytosines are protected from conversion to uracils, thus allowing one to determine cytosine methylation states at single-nucleotide resolution by direct sequencing.
# To assess changes in methylation states of CpG island within hMLH1 promoter region after Casilio-ME-mediated transcription activation, time course experiment were carried out where cells were collected 3, 4, 5, and 6 days post transfection, for analysis of cytosine methylation as well as transcription activation, and protein expression. HEK293T were transfected with Casilio-ME components that includes Ct-fusion PUFa-TET1 effector and a combination of 2 sgRNAs (RNA guides 3 and 7).
# Cell culture and transfection. […]
# TetO::tdTomato transgene = TetO::tdTomato transgene activation measured by FACS; type: cell-based; settings: for transgene activation with 15, 20, and 47 copies of PBS: with dCas9 and sgTetO-PBS, compared with 5-10 copies
# Text: In particular, to test whether appending PBS to the 3′ end of sgRNA affects sgRNA function, a series of modified Tet-targeting (sgTetO) or non-targeting control (sgControl) sgRNA were generated, with 0 copy, 5 copies, 15 copies, 25 copies, and 47 copies of the 8-mer Pumilio homologue domain-binding sequence (PBS) for PUF (3-2) (also simply referred to as PUFa) [PBS32 or PBSa: SEQ ID NO:8 (5′-UGUAUgUA-3′)], PUF(6-2/7-2) (also simply referred to as PUFb) [PBS6272 or PBSb: SEQ ID NO:9 (5′-UugAUAUA-3′)].
# Cells were transfected with dCas9-VP64 with the different sgRNA scaffolds, and were analyzed by fluorescent-activated cell sorting (FACS) two days after transfection (FIG. 1B).
# Fusions of PUF(3-2)::VP64 and PUF(6-2/7-2)::VP64, which interacts with sgRNA (sgRNA-PBS32) with 5′-UGUAUgUA-3′ binding sites and sgRNA-PBS6272 with 5′-UugAUAUA-3′ binding sites, respectively, were created, and their activity to turn on tdTomato expression in conjunction with dCas9 was tested. In addition, two additional pairs, PUFw-VP64 recognizing PBSw (5′-UGUAUAUA-3′) and PUFc-VP64 recognizing PBSc (5′-UugAUgUA-3′), were also constructed to test their ability to activate the same TetO::tdTomato expression in conjunction with dCas9 (FIG. 1D).
# Cell Culture for Experiments. HEK293T cells were cultivated in Dulbecco's modified Eagle's medium (DMEM)(Sigma) with 10% fetal bovine serum (FBS)(Lonza), 4% Glutamax (Gibco), 1% Sodium Pyruvate (Gibco) and penicillin-streptomycin (Gibco). Incubator conditions were 37° C. and 5% CO2. For activation experiments, cells were seeded into 12-well plates at 100,000 cells per well the day before being transfected with 200 ng of dCas9 construct, 100 ng of modified sgRNA and 100 ng of PUF-fusion with Attractene transfection reagent (Qiagen). After transfection, cells were grown for 48 hrs and harvested for either RNA extraction or fluorescent-activated cell sorting (FACS). […]
# Fluorescent-Activated Cell Sorting. […] Samples were analyzed on a FACScalibur flow cytometer using CellQuest Pro software (BD Bioscience). […] were collected in each run.
# SOX2 = SOX2 gene expression by quantitative reverse-transcription PCR after targeting Dnmt effectors to the SOX2 promoter; type: cell-based; settings: with dCas9 and sgRNA-PBS targeting SOX2 promoter; compared with dCas9 direct fusions
# Procedure: Establishment of a dCas9-expressing cell line. The day prior to transfection, Lenti-X 293T cells were seeded into 6-well plates at 1.2 million cells per well. The cells were transfected with the supercoiled packaging plasmids (pLP1 (gag/pol), pLP2 (rev), and VSV-G (envelope)) and a dCas9 lentiviral expression plasmid through Lipofectamine 3000 reagent (Invitrogen). At 6 h posttransfection, medium was exchanged for fresh. At 24 h posttransfection, 2 ml of medium containing the lentivirus were collected and centrifuged for 10 minutes at 2,000 rpm to remove cellular debris. The supernatant was filtered utilizing a […] pore filter (Millipore), and the lentivirus was frozen at −80° C. until needed. HEK293T cells, seeded into a 12-well plate at 150,000 cells per well, were transduced with 500 μl of the dCas9 lentivirus in culture medium supplemented with 5 μg/ml polybrene for 12 hours, and subsequently selected with Blasticidin antibiotics on the third day post transduction.
# Transfection. HEK293T, and HEK293T/dCas9 cell lines were seeded into 12-well plates at 150,000 cells per well. […] At 3 day post-transfection, the cells were sorted for GFP (sgRNA expression constructs are marked by GFP) with fluorescence-activated cell sorting (FACS) and re-plated into 12 or 24-well plates.
# Quantitative reverse-transcription PCR. […]
molecule,measurement,setting,value
"Nc1ncn([C@@H]2O[C@H](CO)[C@@H](O)[C@H]2O)c(=O)n1 [5′azacytidine, 5-Azacytidine]",bisulfite conversion frequency within hMLH1 promoter region,hMLH1 promoter,increased bisulfite conversion frequency on multiple CpG sites
PUFa-VP64: PUF(3-2) domain with NLS fused to VP64 (protein) MGILPPKKKRKVSRGRSRLLEDFRNNRYPNLQLREIAGHIMEFSQDQHGSRFIQLKLERATPAERQLVFNEILQAAYQLMVDVFGNYVIQKFFEFGSLEQKLALAERIRGHVLSLALQMYGSRVIEKALEFIPSDQQNEMVRELDGHVLKCVKDQNGNHVVQKCIECVQPQSLQFIIDAFKGQVFALSTHPYGCRVIQRILEHCLPDQTLPILEELHQHTEQLVQDQYGNYVIQHVLEHGRPEDKSKIVAEIRGNVLVLSQHKFASNVVEKCVTHASRTERAVLIDEVCTMNDGPHSALYTMMKDQYANYVVQKMIDVAEPGQRKIVMHKIRPHIATLRKYTYGKHILAKLEKYYMKNGVDLGGPAGSGRADALDDFDLDMLGSDALDDFDLDMLGSDALDDFDLDMLGSDALDDFDLDMLYID,activation with only one PBSa,TetO::tdTomato transgene; TetO-targeting sgRNA with 1 copy of PBSa,previously not observed
same,"transgene activation with 15, 20, and 47 copies of PBS",TetO::tdTomato transgene,"slightly lower, albeit still substantial transgene activation"
PUFb-VP64: PUF(6-2/7-2) domain with NLS fused to VP64 (protein) MGILPPKKKRKVSRGRSRLLEDFRNNRYPNLQLREIAGHIMEFSQDQHGSRFIQLKLERATPAERQLVFNEILQAAYQLMVDVFGNYVIQKFFEFGSLEQKLALAERIRGHVLSLALQMYGCRVIQKALEFIPSDQQNEMVRELDGHVLKCVKDQNGNHVVQKCIECVQPQSLQFIIDAFKGQVFALSTHPYGCRVIQRILEHCLPDQTLPILEELHQHTEQLVQDQYGSYVIEHVLEHGRPEDKSKIVAEIRGNVLVLSQHKFANNVVQKCVTHASRTERAVLIDEVCTMNDGPHSALYTMMKDQYANYVVQKMIDVAEPGQRKIVMHKIRPHIATLRKYTYGKHILAKLEKYYMKNGVDLGGPAGSGRADALDDFDLDMLGSDALDDFDLDMLGSDALDDFDLDMLGSDALDDFDLDMLYID,"transgene activation with 15, 20, and 47 copies of PBS",TetO::tdTomato transgene,"slightly lower, albeit still substantial transgene activation"
Dnmt3a-PUF: Dnmt3a catalytic domain fused to the N-terminus of PUFa (protein) MGPANHDQEFDPPKVYPPVPAEKRKPIRVLSLFDGIATGLLVLKDLGIQVDRYIASEVCEDSITVGMVRHQGKIMYVGDVRSVTQKHIQEWGPFDLVIGGSPCNDLSIVNPARKGLYEGTGRLFFEFYRLLHDARPKEGDDRPFFWLFENVVAMGVSDKRDISRFLESNPVMIDAKEVSAAHRARYFWGNLPGMNRPLASTVNDKLELQECLEHGRIAKFSKVRTITTRSNSIKQGKDQHFPVFMNEKEDILWCTEMERVFGFPVHYTDVSNMSRLARQRLLGRSWSVPVIRHLFAPLKEYFACVIDGGGGSDPKKKRKVDPKKKRKVDPKKKRKVGSTGSRNDGGGGSGGGGSGGGGSGRAGILPPKKKRKVSRGRSRLLEDFRNNRYPNLQLREIAGHIMEFSQDQHGSRFIQLKLERATPAERQLVFNEILQAAYQLMVDVFGNYVIQKFFEFGSLEQKLALAERIRGHVLSLALQMYGSRVIEKALEFIPSDQQNEMVRELDGHVLKCVKDQNGNHVVQKCIECVQPQSLQFIIDAFKGQVFALSTHPYGCRVIQRILEHCLPDQTLPILEELHQHTEQLVQDQYGNYVIQHVLEHGRPEDKSKIVAEIRGNVLVLSQHKFASNVVEKCVTHASRTERAVLIDEVCTMNDGPHSALYTMMKDQYANYVVQKMIDVAEPGQRKIVMHKIRPHIATLRKYTYGKHILAKLEKYYMKNGVDLGDPKKKRKVDPKKKRKVGGRGGGGSGGGGSGGGGSGPA,repression of SOX2 gene expression,SOX2,more robust repression of SOX2 gene expression compared to direct fusions
